{
  "source": "patent US12098176B2",
  "about": "“Keratin BD-4, preparation method, and pharmaceutical composition and use thereof” (Institute of Materia Medica, Chinese Academy of Medical …, priority 2019, dated 2024)",
  "molecules": {"B1": {"name": "BD-4: recombinant keratin, amino acid sequence SEQ ID NO: 1, expressed in E. coli; the protein of Example 4 was tested (protein, listed as Bos taurus)", "chain": "MSYSCCLPNLSFRSSCSSRPCVPSSCCGTTLPGACNIPANVGSCNWFCEGSFNGSEKETMQFLNDRLASYLEKVRQLERDNAELESRILERSQQQEPLVCPNYQSYFRTIEELQQKILCSKSENARLVVQIDNAKLASDDFRTKYETEVSLRQLVEADLNGLRRILDELTLCKSDLEARVESLKEELICLKQNHEQEVNTLRSQLGDRLNVEVDAAPTVDLNRVLNETRAQYEALVETNRRDVEEWYIRQTEELNKQVVSSSEQLQSYQAEIIELRRTVNALEVELQAQHNLRDSLENTLTETEARYSCQLAQVQGLIGNVESQLAEIRSDLERQNQEYQVLLDVRARLECEINTYRGLLDSEDCKLPCNPCATTNACERPCISNPCVSRARCGPCNTFVH"}},
  "type_in_all_cases": "in vivo, mouse",
  "key": {"[1]": {"tested_on": "PLO-induced epilepsy in mice", "test": "Pilocarpine (PLO) induced convulsive epilepsy in mice", "conditions": "for Grade IV seizure rate / mortality rate: 10 mice; for Grade IV seizure rate / mortality rate / Number of deaths / Number of Grade IV cases: PLO 225 mg/kg i.p.; for Number of deaths / Number of Grade IV cases: of 10 mice; for Number of Grade IV cases: 30 min observation; for Level II onset incubation period / Level III onset incubation period / Level IV onset incubation period: mean ± SEM; for Level IV onset incubation period: no grade IV attack recorded as 1800 s", "procedure": "Experimental example 3 The pharmacodynamic test of protein BD-4 (Example 4 protein) on convulsive epilepsy in mice caused by the convulsion agent Pilocarpine (PLO)\nModel group: • Diazepam (Diazepam) 2 mg/kg group; • Protein BD-4, 50 mg/kg group, 200 mg/kg group. Method: Model Preparation and Administration:\nThe drug was administered once in the afternoon the day before modeling, PLO-225 mg/kg (modeling agent) was injected intraperitoneally 1 hour after the test drug was given to the stomach on the day of modeling. And positive drug can be administered once 20 minutes before modeling. Observe for 30 minutes after PLO injection.\nObservation indicators: 1) Seizure situation: the time of seizures from grade II to grade IV; 2) the time to death.\nAttack level: Refer to Racine grading standard: Level 0: No response; Grade I: manifested as twitching of facial muscles or the corners of the mouth; Level II: can nod; Level III: Twitching of one limb; Grade IV: rigidity or body twitching; Grade V: generalized epilepsy (generalized tonic seizures).\nCount the number of grade IV seizures and deaths in each group of mice in the experiment; Level II, III and IV incubation period. […] Chi-square test was used for statistics of the number of cases. The mean value and standard error of the incubation period were calculated, and TTEST was used to compare the model group with other groups. P<0.05 was considered as a significant difference."}, "[2]": {"tested_on": "PTZ-induced epilepsy in mice", "test": "Pentylenetetrazole (PTZ) induced epilepsy in mice", "conditions": "for Grade IV seizure rate / mortality rate: 10 mice; for Grade IV seizure rate / mortality rate / Number of deaths / Number of Grade IV cases: PTZ 65 mg/kg i.p.; for Number of deaths / Number of Grade IV cases: of 10 mice; for Number of Grade IV cases: 15 min observation; for Level III onset latency / Grade IV onset latency: mean ± SEM; for Grade IV onset latency: no grade IV attack recorded as 900 s", "procedure": "Experiment Grouping: • Model group; • Retigabine 60 mg/kg group; • Protein BD-4, 50 mg/kg group, 200 mg/kg group; Method: Model Preparation and Administration:\nAdminister once in the afternoon the day before modeling, On the day of modeling, intraperitoneal injection of PTZ-65 mg/kg (modeling agent) 1 hour after gavage of the test drug, the positive drug can be administered once half an hour before modeling. Continue to observe for 15 minutes after injection of PTZ.\nObservation index: 1) Seizure condition: Onset time of grade III to grade VI; 2) Death situation\nOnset level: Refer to Racine grading standard: Level 0: No response; Grade I: manifested as twitching of facial muscles or the corners of the mouth; Level II: Can nod; Grade III: twitching of one limb; Grade IV: Rigidity or body twitching; Grade V: Generalized epilepsy (Generalized tonic seizures).\nCount the number of seizures and deaths in each group of mice in the experiment; Level III and IV incubation period. The incubation period of mice that have not attacked to grade IV is recorded as the maximum of 900 seconds. Chi-square test was used for statistics of the number of cases. Calculate the mean and standard error of the incubation period. Use TTEST to compare the model group with other groups, and P<0.05 is considered as a significant difference."}, "[3]": {"tested_on": "phenol red excretion in mice", "test": "Expectorant test, phenol red excretion method in mice", "conditions": "for Phenol red excretion: X ± SEM", "procedure": "Experimental example 5 The pharmacodynamic test of protein BD-4 (Example 4 protein) on the expectorant of phenol red excretion method in mice.\n• Solvent control group; • Mucosultan 30 mg/kg group; • Protein BD-4, 20 mg/kg group, 50 mg/kg group. Method: Model Preparation and Administration:\nThe animals were fasted and watered 16 hours before the experiment. Orally administered Mucosultan and different doses of protein BD-4 (administration volume 10 ml/kg) in groups, and the solvent control group was given the same volume of distilled water. One hour later, 2.5% phenol red solution was injected intraperitoneally, Kill the mouse by removing the neck after 30 minutes. Take the trachea from below the thyroid cartilage to the branch of the trachea. Put the trachea into 3 ml 5% NaHCO3 solution and let it stand for 3 hours. Take 1 ml of the supernatant and centrifuge at 3000 rpm for 5 minutes. Measure and record the absorbance at 546 nm. According to the standard curve of phenol red, the excretion of phenol red was calculated.\nRecord the time point of oral administration, the time point of intraperitoneal injection of 2.5% phenol red solution, and the time point of tracheal extraction respectively; The absorbance of each group of samples was measured by the microplate reader at 546 nm, Calculate the excretion of phenol red according to the standard curve of phenol red. Calculate the mean and standard error of the data in each group, use TTEST to compare the solvent control group with other groups, and P<0.05 is considered as a significant difference."}},
  "data": [
    {"molecule": "B1", "values": [
      {"measurement": "Epilepsy grade II incubation period, comparison with model group", "setting": "[1]; 50 mg/kg", "result": "statistically different from the model group"},
      {"measurement": "Epilepsy grade III incubation period, comparison with model group", "setting": "[1]; 50 mg/kg", "result": "statistically different from the model group"},
      {"measurement": "Grade IV seizure rate", "setting": "[1]; 50 mg/kg gavage", "result": 70, "unit": "%"},
      {"measurement": "mortality rate", "setting": "[1]; 50 mg/kg gavage", "result": 0},
      {"measurement": "Number of deaths", "setting": "[1]; 50 mg/kg gavage", "result": 0},
      {"measurement": "Number of Grade IV cases", "setting": "[1]; 50 mg/kg gavage", "result": 7},
      {"measurement": "Level II onset incubation period", "setting": "[1]; 50 mg/kg", "result": "95 ± 3", "unit": "s"},
      {"measurement": "Level III onset incubation period", "setting": "[1]; 50 mg/kg", "result": "162 ± 5", "unit": "s"},
      {"measurement": "Level IV onset incubation period", "setting": "[1]; 50 mg/kg", "result": "974 ± 192", "unit": "s"},
      {"measurement": "Epilepsy grade III incubation period, comparison with model group", "setting": "[1]; 200 mg/kg", "result": "statistically different from the model group"},
      {"measurement": "Grade IV seizure rate", "setting": "[1]; 200 mg/kg gavage", "result": 90, "unit": "%"},
      {"measurement": "mortality rate", "setting": "[1]; 200 mg/kg gavage", "result": 10, "unit": "%"},
      {"measurement": "Number of deaths", "setting": "[1]; 200 mg/kg gavage", "result": 1},
      {"measurement": "Number of Grade IV cases", "setting": "[1]; 200 mg/kg gavage", "result": 9},
      {"measurement": "Level II onset incubation period", "setting": "[1]; 200 mg/kg", "result": "95 ± 6", "unit": "s"},
      {"measurement": "Level III onset incubation period", "setting": "[1]; 200 mg/kg", "result": "184 ± 17", "unit": "s"},
      {"measurement": "Level IV onset incubation period", "setting": "[1]; 200 mg/kg", "result": "765 ± 135", "unit": "s"},
      {"measurement": "Epilepsy grade III incubation period, comparison with model group", "setting": "[2]; 50 mg/kg", "result": "statistically different from the model group"},
      {"measurement": "Grade IV seizure rate", "setting": "[2]; 50 mg/kg gavage", "result": 80, "unit": "%"},
      {"measurement": "mortality rate", "setting": "[2]; 50 mg/kg gavage", "result": 10, "unit": "%"},
      {"measurement": "Number of deaths", "setting": "[2]; 50 mg/kg gavage", "result": 1},
      {"measurement": "Number of Grade IV cases", "setting": "[2]; 50 mg/kg gavage", "result": 8},
      {"measurement": "Level III onset latency", "setting": "[2]; 50 mg/kg", "result": "91 ± 12", "unit": "s"},
      {"measurement": "Grade IV onset latency", "setting": "[2]; 50 mg/kg", "result": "308 ± 103", "unit": "s"},
      {"measurement": "Epilepsy grade III incubation period, comparison with model group", "setting": "[2]; 200 mg/kg", "result": "statistically different from the model group"},
      {"measurement": "Grade IV seizure rate", "setting": "[2]; 200 mg/kg gavage", "result": 70, "unit": "%"},
      {"measurement": "mortality rate", "setting": "[2]; 200 mg/kg gavage", "result": 0},
      {"measurement": "Number of deaths", "setting": "[2]; 200 mg/kg gavage", "result": 0},
      {"measurement": "Number of Grade IV cases", "setting": "[2]; 200 mg/kg gavage", "result": 7},
      {"measurement": "Level III onset latency", "setting": "[2]; 200 mg/kg", "result": "89 ± 8", "unit": "s"},
      {"measurement": "Grade IV onset latency", "setting": "[2]; 200 mg/kg", "result": "493 ± 113", "unit": "s"},
      {"measurement": "Phenol red excretion", "setting": "[3]; 20 mg/kg oral", "result": "0.898 ± 0.076", "unit": "µg/mL"},
      {"measurement": "Phenol red excretion vs solvent control group", "setting": "[3]; 20 mg/kg, P<0.05", "result": "significantly increased"},
      {"measurement": "Phenol red excretion", "setting": "[3]; 50 mg/kg oral", "result": "0.775 ± 0.101", "unit": "µg/mL"}
    ]}
  ]
}
